Data as given in patent US20110152352A1 (TUFTS UNIVERSITY, published 2011).

B1: RNA helicase p68 (human p68 cDNA construct, expressed in transfected Cos7 cells) (enzyme, UniProt P17844 1-614, looked up)
chain: MSGYSSDRDRGRDRGFGAPRFGGSRAGPLSGKKFGNPGEKLVKKKWNLDELPKFEKNFYQEHPDLARRTAQEVETYRRSKEITVRGHNCPKPVLNFYEANFPANVMDVIARQNFTEPTAIQAQGWPVALSGLDMVGVAQTGSGKTLSYLLPAIVHINHQPFLERGDGPICLVLAPTRELAQQVQQVAAEYCRACRLKSTCIYGGAPKGPQIRDLERGVEICIATPGRLIDFLECGKTNLRRTTYLVLDEADRMLDMGFEPQIRKIVDQIRPDRQTLMWSATWPKEVRQLAEDFLKDYIHINIGALELSANHNILQIVDVCHDVEKDEKLIRLMEEIMSEKENKTIVFVETKRRCDELTRKMRRDGWPAMGIHGDKSQQERDWVLNEFKHGKAPILIATDVASRGLDVEDVKFVINYDYPNSSEDYIHRIGRTARSTKTGTAYTFFTPNNIKQVSDLISVLREANQAINPKLLQLVEDRGSGRSRGRGGMKDDRRDRYSAGKRGGFNTFRDRENYDRGYSSLLKRDFGAKTQNGVYSAANYTNGSFGSNFVSAGIQTSFRTGNPTGTYQNGYDSTQQYGSNVPNMHNGMNQQAYAYPATAAAPMIGYPMPTGYSQ
notes: Present in nuclear extracts or total lysates of Cos7 cells transfected with the p68 construct; also called Ddx5; DDX5

Tests used:
[1] = biological target: T1, GST-Smad4(FL) fusion protein (UniProt P08515 1-218 = GST; Q13485 1-552); experiment: GST pull-down from nuclear extracts of p68-transfected Cos7 cells, immunoblot with anti-p68
T1 construct: also called s4

[2] = biological target: B1; experiment: in vitro pull-down, data not shown
[3] = biological target: B1; experiment: GST pull-down from nuclear extracts of p68-transfected Cos7 cells, immunoblot with anti-p68

T1 sequence (P08515 1-218, tags or fused parts left off): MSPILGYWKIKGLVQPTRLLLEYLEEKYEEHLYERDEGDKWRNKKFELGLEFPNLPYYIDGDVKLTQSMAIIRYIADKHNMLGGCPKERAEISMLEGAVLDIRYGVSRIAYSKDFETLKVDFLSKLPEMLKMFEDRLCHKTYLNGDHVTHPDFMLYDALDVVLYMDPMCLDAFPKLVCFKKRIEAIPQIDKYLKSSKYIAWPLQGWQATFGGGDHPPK

## B1
[1]
  binding result: no binding

B2: inhibitor Smad6 (other, UniProt O43541 1-496, looked up)
chain: MFRSKRSGLVRRLWRSRVVPDREEGGSGGGGGGDEDGSLGSRAEPAPRAREGGGCGRSEVRPVAPRRPRDAVGQRGAQGAGRRRRAGGPPRPMSEPGAGAGSSLLDVAEPGGPGWLPESDCETVTCCLFSERDAAGAPRDASDPLAGAALEPAGGGRSREARSRLLLLEQELKTVTYSLLKRLKERSLDTLLEAVESRGGVPGGCVLVPRADLRLGGQPAPPQLLLGRLFRWPDLQHAVELKPLCGCHSFAAAADGPTVCCNPYHFSRLCGPESPPPPYSRLSPRDEYKPLDLSDSTLSYTETEATNSLITAPGEFSDASMSPDATKPSHWCSVAYWEHRTRVGRLYAVYDQAVSIFYDLPQGSGFCLGQLNLEQRSESVRRTRSKIGFGILLSKEPDGVWAYNRGEHPIFVNSPTLDAPGGRALVVRKVPPGYSIKVFDFERSGLQHAPEPDAADGPYDPNSVRISFAKGWGPCYSRQFITSCPCWLEILLNNPR
[2]
  binding result: no binding

B3: GST-Smad1 (MH1 domain) fusion protein (other, UniProt Q15797 12-136, looked up)
chain: PAVKRLLGWKQGDEEEKWAEKAVDALVKKLKKKKGAMEELEKALSCPGQPSNCVTIPRSLDGRLQVSHRKGLPHVIYCRVWRWPDLQSHHELKPLECCEFPFGSKQKEVCINPYHYKRVESPVLP
notes: domain: MH1; also called s1-n219; amino-terminal MH1 domain of Smad1; not shown: glutathione S-transferase (GST) tag
[3]
  binding result: no binding
